Test results reported in patent publication US7122636.
Where two headings read alike, the source gives them in different places.

Experiments:
[1] = target: T1, recombinant human IL-8, (ser-IL-8)72 (human, UniProt P10145 28-99); assay: cell-based or functional assay
T1 sequence (looked up): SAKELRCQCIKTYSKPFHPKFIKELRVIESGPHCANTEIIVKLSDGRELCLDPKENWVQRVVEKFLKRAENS

[2] = target: T1, recombinant human IL-8, (ser-IL-8)72; assay: 125I-IL-8 binding to human neutrophils, competition; against the chimeric F(ab)
[3] = target: T1, recombinant human IL-8, (ser-IL-8)72; assay: 125I-IL-8 binding to human neutrophils, competition
[4] = target: T1, recombinant human IL-8, (ser-IL-8)72; assay: as above; remark: listed apart in the source
[5] = target: T1, recombinant human IL-8, (ser-IL-8)72; assay: 125I-IL-8 binding to human neutrophils, competition; against F(ab)-1
β-TG = target: T2, β-TG (UniProt P02775 48-128); assay: cross reactivity test
T2 construct: also called b-TG
T2 sequence (looked up): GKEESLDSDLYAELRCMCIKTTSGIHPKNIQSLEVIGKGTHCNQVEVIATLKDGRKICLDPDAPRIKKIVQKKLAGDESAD

PF4 = target: T3, PF4 (UniProt P02776 32-101); assay: cross reactivity test
T3 construct: also called platelet factor 4
T3 sequence (looked up): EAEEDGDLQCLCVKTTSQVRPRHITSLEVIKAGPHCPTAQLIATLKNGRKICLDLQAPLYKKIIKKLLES

Binder	IC50 [3]	fold decrease in IL-8 binding [5]	other results
6G4V11N35A Fab (Fab, V domains shown) VH: EVQLVQSGGGLVQPGGSLRLSCAASGYSFSSHYMHWVRQAPGKGLEWVGYIDPSNGETTYNQKFKGRFTLSRDNSKNTAYLQMNSLRAEDTAVYYCARGDYRYNGDWFFDVWGQGTLVTVSS VL: DIQMTQSPSSLSASVGDRVTITCRSSQSLVHGIGATYLHWYQQKPGKAPKLLIYKVSNRFSGVPSRFSGSGSGTDFTLTISSLQPEDFATYYCSQSTHVPLTFGQGTKVEIKR			IC50, neutrophil chemotaxis [1]: 2.7 nM
humanized 6G425 F(ab)-1 (Fab, V domains shown, Fab with human kappa I and human IgG1 CH1 constant domains; also called version 1; V1) VH: EVQLVESGGGLVQPGGSLRLSCAASGYSFSSHYMHWVRQAPGKGLEWVGYIDPSNGETTYNQKFKGRFTISRDNSKNTLYLQMNSLRAEDTAVYYCAARGDYRYNGDWFFDVWGQGT VL: DIQMTQSPSSLSASVGDRVTITCRSSQSLVHGIGNTYLHWYQQKPGKAPKLLIYYKVSNRFSGVPSRFSGSGSGTDFTLTISSLQPEDFATYYCSQSTHVPLTFGQGTKVEIKR	63 nM		fold reduction in binding affinity [2]: 5.5 fold; IC50 [4]: 40 nM
humanized 6G425 F(ab)-3 (Fab, V domains shown, template F(ab)-1; also called version 3) VH: EVQLVESGGGLVQPGGSLRLSCAASGYSFSSHYMHWVRQAPGKGLEWVGYIDPSNGETTYNQKFKGRFTISVDNSKNTLYLQMNSLRAEDTAVYYCAARGDYRYNGDWFFDVWGQGT VL: DIQMTQSPSSLSASVGDRVTITCRSSQSLVHGIGNTYLHWYQQKPGKAPKLLIYYKVSNRFSGVPSRFSGSGSGTDFTLTISSLQPEDFATYYCSQSTHVPLTFGQGTKVEIKR	79.8 nM	< 2 fold	
humanized 6G425 F(ab)-2 (Fab, V domains shown, template F(ab)-1; also called version 2) VH: EVQLVESGGGLVQPGGSLRLSCAASGYSFSSHYMHWVRQAPGKGLEWVGYIDPSNGETTYNQKFKGRATISRDNSKNTLYLQMNSLRAEDTAVYYCAARGDYRYNGDWFFDVWGQGT VL: DIQMTQSPSSLSASVGDRVTITCRSSQSLVHGIGNTYLHWYQQKPGKAPKLLIYYKVSNRFSGVPSRFSGSGSGTDFTLTISSLQPEDFATYYCSQSTHVPLTFGQGTKVEIKR	106 nM	< 2 fold	
anti-IL-8 monoclonal antibody 5.12.14 (antibody, mouse IgG2a, V domains shown, mouse IgG2a from hybridoma ATCC HB 11553) VH: EVQLVESGGGLVPPGGSLKLSCAASGFIFSSYGMSWVRQTPGKSLELVATINNNGDSTYYPDSVKGRFTISRDNAKNTLYLQMSSLKSEDTAMFYCARALISSATWFGYWGQGTLVTVSA VL: DIVMTQSQKFMSTSVGDRVSVTCKASQNVGTNVAWYQQKPGQSPKALIYSSSYRYSGVPDRFTGSGSGTDFTLTISHVQSEDLADYFCQQYNIYPLTFGPGTKLELKR			binding result (β-TG): no binding; binding result (PF4): no binding
